# From patent publication CN108727489A (GUANGZHOU 8TH PEOPLES HOSPITAL; UNIV TSINGHUA, dated 2018)
# B1: ZK2C2 (antibody, human IgG1, lambda, V domains shown)
# VH: EVQLLESGGGVVQPGRSLRLSCAGSGFTFSSYGMHWVRQAPGKGLEWVAVISYDGSNKYYVDSVKGRFTISRDNSRNTLYLQMNNLKAEDTAVYYCAKGHLIDWGQGTLVTVSS
# VL: QLVLTQPPSASGTPGQRVTISCSGSSSNIGRNIVNWYQQFPGTTPKLLIYGTNQRPSGVPDRFSGSKSGTSASLAISGLQSEDETNYYCAAWDDSLNGWLFGGGTKLTVLG
# notes: also called 单克隆抗体ZK2C2; ZK2C2抗体
# Assays:
# [1] = target: 寨卡病毒GZ01株的E蛋白 (on virus particles) (Zika virus GZ01 strain); test: cell-based or functional assay
# [2] = target: T1, E-His 6 融合蛋白 (Zika virus, UniProt A0A024B7W1 292-693); test: ELISA screen of memory B cell culture supernatants on coated E-His6 fusion protein
# T1 construct: Expressed in 293T cells, purified on a Ni column and by gel filtration; Used as the ELISA coating antigen; also called E-His6 fusion protein; 寨卡病毒的E蛋白
# T1 sequence (A0A024B7W1 292-693, tags left off): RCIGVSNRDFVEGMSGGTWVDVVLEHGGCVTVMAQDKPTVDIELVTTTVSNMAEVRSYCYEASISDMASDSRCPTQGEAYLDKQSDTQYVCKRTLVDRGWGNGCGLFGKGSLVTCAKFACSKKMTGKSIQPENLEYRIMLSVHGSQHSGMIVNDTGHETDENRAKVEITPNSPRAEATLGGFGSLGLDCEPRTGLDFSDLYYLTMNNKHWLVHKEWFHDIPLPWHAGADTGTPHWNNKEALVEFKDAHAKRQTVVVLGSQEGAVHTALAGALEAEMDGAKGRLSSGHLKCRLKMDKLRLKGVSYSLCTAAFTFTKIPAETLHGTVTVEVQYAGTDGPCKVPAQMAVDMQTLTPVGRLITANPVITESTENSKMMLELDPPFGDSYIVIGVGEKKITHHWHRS
binder,measurement,setting,value
B1,"中和百分比为50%时的抗体浓度 (IC50), plaque reduction on Vero cells",[1],3.8 µg/mL
same,binding result,[2],binds
